Assay results reported in patent publication US20230287089A1 (FLAGSHIP PIONEERING INNOVATIONS VI, published 2023).

B1: Reference (VH of Reference fused to a c-Myc epitope tag, displayed on yeast) (VHH)
VHH: QVQLQESGGGLVQAGGSLRLSCAASGRTFSEYAMGWFRQAPGKEREFVATISWSGGSTYYTDSVKGRFTISRDNAKNTVYLQMNSLKPDDTAVYYCAAAGLGTVVSEWDYDYDYWGQGTQVTVSS
B2: AB-1 (VH of AB-1 fused to a c-Myc epitope tag, displayed on yeast) (VHH)
VHH: QVQLQESGGGLVQAGGSLRLSCAASGRTFSEYAMGWFRQAPGKEREFVATISWSGGSTYYTDSVKGRFTISRDNAKNTVYLQMNSLKPDDTAVYYCAAAGLGVVLSEWDYDYDYWGQGTQVTVSS
B3: AB-2 (VH of AB-2 fused to a c-Myc epitope tag, displayed on yeast) (VHH)
VHH: QVQLQESGGGLVQAGGSLRLSCAASGRTFSEYAMGWFRQAPGKEREFVATISYSGGSTYYTDSVKGRFTISRDNAKNTVYLQMNSLKPDDTAVYYCAAAGLGVHVSEWDYDYDYWGQGTQVTVSS

Key:
[1] = target: T1, SARS-CoV-2 receptor binding domain (RBD) antigen (SARS-CoV-2, UniProt P0DTC2 319-527); experiment: yeast surface display, titration of biotinylated RBD, flow cytometry
T1 construct: also called SARS-COV-2 RBD; COV-2 RBD

[2] = target: T1, SARS-CoV-2 receptor binding domain …

Binder	Kd [1] [nM]	EC50 (read off the curve) [2] [nM]
B1	6	~6
B2	9.3	~5
B3	6.6	~6
